Literature values, collected in patent publication US6444791B1, “Methods and compositions for the treatment of keratoconus using protease inhibitors” (K-Quay Enterprises, LLC, priority 1999, dated 2002).
Where two headings read alike, the source gives them in different places. Non-standard residues stand in square brackets, D forms with d. Residues, ends and D or L forms follow the SMILES beside them. No end group written: not given here. *: point of attachment. Sta = CC(C)C[C@H](N)[C@@H](O)CC(=O)O; Isovaleryl = CC(C)CC(=O)*

Tests used:
[1] = test system: gelatinolytic and caseinolytic activities; settings: in situ zymography, healthy control and keratoconic specimens
[2] = target: T1, gelatinase, type IV collagenase (Homo sapiens, UniProt P08253); settings: keratoconus keratocyte culture media
T1 construct: host or cells: keratoconus keratocyte culture media (endogenous, secreted)
T1 sequence (P08253 110-660): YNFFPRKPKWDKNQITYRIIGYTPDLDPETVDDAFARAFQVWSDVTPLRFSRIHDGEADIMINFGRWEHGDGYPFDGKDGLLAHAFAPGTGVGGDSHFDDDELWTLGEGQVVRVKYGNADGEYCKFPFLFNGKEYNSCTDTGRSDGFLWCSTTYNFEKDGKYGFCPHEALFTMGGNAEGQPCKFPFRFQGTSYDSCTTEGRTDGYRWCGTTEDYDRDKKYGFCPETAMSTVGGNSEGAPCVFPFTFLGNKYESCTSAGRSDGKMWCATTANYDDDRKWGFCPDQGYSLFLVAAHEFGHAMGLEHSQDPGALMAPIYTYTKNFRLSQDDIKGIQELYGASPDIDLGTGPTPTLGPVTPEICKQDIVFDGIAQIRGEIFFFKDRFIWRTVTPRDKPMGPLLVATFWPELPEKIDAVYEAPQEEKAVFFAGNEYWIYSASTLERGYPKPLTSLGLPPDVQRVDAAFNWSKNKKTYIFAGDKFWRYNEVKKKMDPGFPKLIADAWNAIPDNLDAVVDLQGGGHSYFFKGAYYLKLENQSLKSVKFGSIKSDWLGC

proteinase-3 = target: T2, proteinase-3 (Homo sapiens, UniProt P24158)
T2 sequence (P24158 28-248): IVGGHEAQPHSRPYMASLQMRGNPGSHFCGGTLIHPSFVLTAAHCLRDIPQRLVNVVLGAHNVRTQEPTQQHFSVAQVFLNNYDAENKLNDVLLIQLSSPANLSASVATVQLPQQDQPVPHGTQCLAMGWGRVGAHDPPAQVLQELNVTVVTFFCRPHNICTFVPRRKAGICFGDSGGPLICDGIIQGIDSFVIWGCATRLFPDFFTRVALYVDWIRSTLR

elastase [3] = target: T3, elastase (Homo sapiens, UniProt P08246); settings: R-type tear fluid; from calculated molar ratios of serpins
T3 sequence (P08246 30-267): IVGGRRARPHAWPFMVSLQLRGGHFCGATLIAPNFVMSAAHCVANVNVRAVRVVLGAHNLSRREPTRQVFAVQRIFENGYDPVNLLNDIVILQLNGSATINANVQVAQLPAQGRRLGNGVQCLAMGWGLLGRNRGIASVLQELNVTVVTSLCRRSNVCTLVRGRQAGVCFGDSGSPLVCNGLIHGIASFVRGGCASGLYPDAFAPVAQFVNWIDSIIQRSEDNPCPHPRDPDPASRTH

elastase [4] = target: T3, elastase
cathepsin G = target: T4, cathepsin G (Homo sapiens, UniProt P08311)
T4 sequence (P08311 21-244): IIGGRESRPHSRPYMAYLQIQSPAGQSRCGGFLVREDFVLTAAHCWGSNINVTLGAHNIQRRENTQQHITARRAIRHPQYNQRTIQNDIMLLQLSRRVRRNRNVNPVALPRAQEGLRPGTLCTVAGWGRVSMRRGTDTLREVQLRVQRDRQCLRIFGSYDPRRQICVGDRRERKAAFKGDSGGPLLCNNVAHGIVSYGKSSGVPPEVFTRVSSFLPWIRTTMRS

HIV virus = settings: cell culture

O=S(=O)(F)Cc1ccccc1 [phenylmethyl sulfonyl fluoride]
effect on digestion of gelatin and casein [1]: substantially reduced | effect on gelatinolytic activity ([2]; lmM): not effected

OCCS [B-mercaptoethanol]
effect on gelatinolytic activity [2]: inactivated

elafin: protease inhibitor (6-9 kDa), potent inhibitor of proteinase-3 (AQEPVKGPVSTKPGSCPIILIRCAMLNPPNRCLKDTDCPGIKKCCEGSCGMACFVPQ; ends and bridges not checked; cysteine pairing not given here; UniProt P19957 61-117, looked up)
inhibition of proteinase-3 (proteinase-3): potent inhibitors

c1cnc2c(c1)ccc1cccnc12 [1, 10-phenanthroline]
effect on digestion of gelatin and casein [1]: failed to block

CC(C)C[C@H](NC(=O)[C@H]1O[C@@H]1C(=O)O)C(=O)NCCCCN=C(N)N [E-64]
effect on digestion of gelatin and casein [1]: substantially reduced

CC(C)CC(=O)N[C@H](C(=O)N[C@H](C(=O)N[C@@H](CC(C)C)[C@@H](O)CC(=O)N[C@@H](C)C(=O)N[C@@H](CC(C)C)[C@@H](O)CC(=O)O)C(C)C)C(C)C [pepstatin] (Isovaleryl-VV[Sta]A[Sta]-OH)
effect on digestion of gelatin and casein [1]: failed to block

CC(=O)N[C@@H](CC(C)C)C(=O)N[C@@H](CC(C)C)C(=O)N[C@H](C=O)CCCNC(=N)N [leupeptin]
effect on digestion of gelatin and casein [1]: substantially reduced

alp1: α-1 protease inhibitor, a major protease inhibitor in human plasma, glycoprotein of 53 kDa
inhibition of proteinase-3 (proteinase-3): potent inhibitors

O[C@H](CS)[C@H](O)CS (racemic) [dithiothreitol]
effect on gelatinolytic activity [2]: inactivated

B1: SLPI: secretory leucocyte protease inhibitor, an 11.7 kDa elastase and cathepsin G specific inhibitor (protein, UniProt P03973 26-132, looked up)
Antileukoproteinase: SGKSFKAGVCPPKKSAQCLRYKKPECQSDWQCPGKKRCCPDTCGIKCLDPVDTPNPTRRKPGKCPVTYGQCLMLNPPNFCEMDGQCKRDLKCCMGMCGKSCVSPVKA
inhibition of proteinase-3 (proteinase-3): no capacity to inhibit | cytotoxicity to E. coli (E. coli): cytotoxic | share of the total elastase inhibitory activity (elastase [3]): ≥ 95% | cytotoxicity to Staphylococcus aureus (Staphylococcus aureus): cytotoxic | inhibition of elastase (elastase [4]): potent inhibitor | inhibition of cathepsin G (cathepsin G): potent inhibitor | effect on transmission and replication of HIV virus (HIV virus): inhibits

B2: α2-M: α2-macroglobulin, high-molecular-weight (718 kD) homotetrameric glycoprotein protease inhibitor (protein, UniProt P01023 24-1474, looked up)
Alpha-2-macroglobulin: SVSGKPQYMVLVPSLLHTETTEKGCVLLSYLNETVTVSASLESVRGNRSLFTDLEAENDVLHCVAFAVPKSSSNEEVMFLTVQVKGPTQEFKKRTTVMVKNEDSLVFVQTDKSIYKPGQTVKFRVVSMDENFHPLNELIPLVYIQDPKGNRIAQWQSFQLEGGLKQFSFPLSSEPFQGSYKVVVQKKSGGRTEHPFTVEEFVLPKFEVQVTVPKIITILEEEMNVSVCGLYTYGKPVPGHVTVSICRKYSDASDCHGEDSQAFCEKFSGQLNSHGCFYQQVKTKVFQLKRKEYEMKLHTEAQIQEEGTVVELTGRQSSEITRTITKLSFVKVDSHFRQGIPFFGQVRLVDGKGVPIPNKVIFIRGNEANYYSNATTDEHGLVQFSINTTNVMGTSLTVRVNYKDRSPCYGYQWVSEEHEEAHHTAYLVFSPSKSFVHLEPMSHELPCGHTQTVQAHYILNGGTLLGLKKLSFYYLIMAKGGIVRTGTHGLLVKQEDMKGHFSISIPVKSDIAPVARLLIYAVLPTGDVIGDSAKYDVENCLANKVDLSFSPSQSLPASHAHLRVTAAPQSVCALRAVDQSVLLMKPDAELSASSVYNLLPEKDLTGFPGPLNDQDNEDCINRHNVYINGITYTPVSSTNEKDMYSFLEDMGLKAFTNSKIRKPKMCPQLQQYEMHGPEGLRVGFYESDVMGRGHARLVHVEEPHTETVRKYFPETWIWDLVVVNSAGVAEVGVTVPDTITEWKAGAFCLSEDAGLGISSTASLRAFQPFFVELTMPYSVIRGEAFTLKATVLNYLPKCIRVSVQLEASPAFLAVPVEKEQAPHCICANGRQTVSWAVTPKSLGNVNFTVSAEALESQELCGTEVPSVPEHGRKDTVIKPLLVEPEGLEKETTFNSLLCPSGGEVSEELSLKLPPNVVEESARASVSVLGDILGSAMQNTQNLLQMPYGCGEQNMVLFAPNIYVLDYLNETQQLTPEIKSKAIGYLNTGYQRQLNYKHYDGSYSTFGERYGRNQGNTWLTAFVLKTFAQARAYIFIDEAHITQALIWLSQRQKDNGCFRSSGSLLNNAIKGGVEDEVTLSAYITIALLEIPLTVTHPVVRNALFCLESAWKTAQEGDHGSHVYTKALLAYAFALAGNQDKRKEVLKSLNEEAVKKDNSVHWERPQKPKAPVGHFYEPQAPSAEVEMTSYVLLAYLTAQPAPTSEDLTSATNIVKWITKQQNAQGGFSSTQDTVVALHALSKYGAATFTRTGKAAQVTIQSSGTFSSKFQVDNNNRLLLQQVSLPELPGEYSMKVTGEGCVYLQTSLKYNILPEKEEFPFALGVQTLPQTCDEPKAHTSFQISLSVSYTGSRSASNMAIVDVKMVSGFIPLKPTVKMLERSNHVSRTEVSSNHVLIYLDKVSNQTLSLFFTVLQDVPVRDLKPAIVKVYDYYETDEFAIAEYNAPCSKDLGNA
rate of reaction with PMN cell proteases (PMN cell proteases): relatively slow rate
